Data on one protein can be found in US20110269817.

The target of this data set is BMAL1 acetylated at Lys537 (ectopically expressed together with CLOCK), Q9WTL8.
Chain of BMAL1 acetylated at Lys537 (ectopically expressed together with CLOCK), Q9WTL8 (Q9WTL8 other isoform, or with tags, fused parts or gaps): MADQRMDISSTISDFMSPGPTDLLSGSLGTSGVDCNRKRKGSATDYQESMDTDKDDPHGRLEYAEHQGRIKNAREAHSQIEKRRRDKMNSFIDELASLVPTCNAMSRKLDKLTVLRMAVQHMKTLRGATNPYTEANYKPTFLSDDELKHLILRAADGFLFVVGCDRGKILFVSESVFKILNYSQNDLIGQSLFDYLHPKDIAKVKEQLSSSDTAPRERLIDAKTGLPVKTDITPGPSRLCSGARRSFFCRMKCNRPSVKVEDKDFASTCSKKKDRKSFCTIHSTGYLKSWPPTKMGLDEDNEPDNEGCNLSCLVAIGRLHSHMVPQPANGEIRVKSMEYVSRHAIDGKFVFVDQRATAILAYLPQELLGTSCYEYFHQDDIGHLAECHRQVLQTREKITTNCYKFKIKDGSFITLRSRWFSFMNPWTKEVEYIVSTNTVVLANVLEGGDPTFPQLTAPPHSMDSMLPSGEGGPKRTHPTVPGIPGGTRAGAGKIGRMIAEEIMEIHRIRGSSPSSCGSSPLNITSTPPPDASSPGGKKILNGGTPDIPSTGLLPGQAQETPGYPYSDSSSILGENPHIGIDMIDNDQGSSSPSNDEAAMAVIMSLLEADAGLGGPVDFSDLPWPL

B1: Recombinant SIRT1 of the SIRT1 Fluorimetric Activity Assay/Drug Discovery Kit (AK-555; BIOMOL International) (protein)
chain: MADEAALALQPGGSPSAAGADREAASSPAGEPLRKRPRRDGPGLERSPGEPGGAAPEREVPAAARGCPGAAAAALWREAEAEAAAAGGEQEAQATAAAGEGDNGPGLQGPSREPPLADNLYDEDDDDEGEEEEEAAAAAIGYRDNLLFGDEIITNGFHSCESDEEDRASHASSSDWTPRPRIGPYTFVQQHLMIGTDPRTILKDLLPETIPPPELDDMTLWQIVINILSEPPKRKKRKDINTIEDAVKLLQECKKIIVLTGAGVSVSCGIPDFRSRDGIYARLAVDFPDLPDPQAMFDIEYFRKDPRPFFKFAKEIYPGQFQPSLCHKFIALSDKEGKLLRNYTQNIDTLEQVAGIQRIIQCHGSFATASCLICKYKVDCEAVRGDIFNQVVPRCPRCPADEPLAIMKPEIVFFGENLPEQFHRAMKYDKDEVDLLIVIGSSLKVRPVALIPSSIPHEVPQILINREPLPHLHFDVELLGDCDVIINELCHRLGGEYAKLCCNPVKLSEITEKPPRTQKELAYLSELPPTPLHVSEDSSSPERTSPPDSSVIVTLLDQAAKSNDDLDVSESKGCMEEKPQEVQTSRNVESIAEQMENPDLKNVGSSTGEKNERTSVAGTVRKCWPNRVAKEQISRRLDGNQYLFLPPNRYIFHGAEVYSDSEDDVLSSSSCGSNSDSGTCQSPSLEEPMEDESEIEEFYNGLEDEPDVPERAGGAGFGTDGDDQEAINEAISVKQEVTDMNYPSNKS
Turning to B1, the “in vitro deacetylation assay (immunoprecipitated Ac-BMAL1 with recombinant SIRT1, 5 mM NAD+ or 10 mM NAM, 90 min at 37 C; Western with Ac-BMAL1 antibody)” value is “SIRT1 readily deacetylates BMAL1 in an in vitro deacetylation assay”.
